# Results reported in PMC3347318.
# Target: Sudan virus Boniface (SUDV-Bon) glycoprotein GP1,2, mucin-like domain and transmembrane domain delet (Sudan virus, variant Boniface) (UniProt Q66814)
# Assay: crystal structure
substance,measurement,value
"Sudan virus Boniface (SUDV-Bon) glycoprotein GP1,2, mucin-like domain and transmembrane domain delet (from UniProt Q66814) (complex)",stoichiometry N,3
